According to the NTF2 design screens of Basanta et al. (2020):

Assay: protease stability score; higher = more stable; yeast display proteolysis, trypsin and chymotrypsin;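 note: relative to predicted unfolded state with 0 unfolded-like and 1 meaning tenfold more protease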

Sequence	protease stability score
EEEDDVLHEFLREFIHFFSTGDFDHIIEMLDPNTQQHVGDKINIGREEWKHWLKFHLDRLGVDQVRVHVRRVRFFNGRVELNIELRQGDYVFDARILALKVDGRWLLESVEIK	2.82
EEEDEWSREAVEFFKRMVETGDEDLQETLADPNARLIQGDKDEHGRHVLSEWMHRMGVDHIRFHHIDVQGDKVRLDFTMRVNGRQIHVKINNMKVNGQWRIKSVHLR	0.537
EEEDREFEERWKEFEHAMRTGDEDSLEENLDPNVRFLFDGQEIVGRELTSKFIAEWLRSLGVEKVTIFMRRFHVIGDKVTVDGAFEVNGVHIRTIVYSKKVNGRWFNKSEEFR	0.733
EEEDRIFKEARRLLEYVSETGDETTLKKLVDPHARTHIGDKLLHGREWLHDLLRKAGEDRFHFIIHHVDLQGDKIQMFGQLVIGDKLIHVEIIVNKIDGRWFVESIKID	0.889
EEEEEDARRASKIFYHNFLTGDEQNLLKLADPHVLLIINGVHFHGWERYKKWEEERRDKFKNVRLELEDMDVEVIGDKIESIIHLRVDIGDKRIHMEVIFIIEKVDGRWKLRSQEVRIE	1.03
EEEEEELLELLKRLWHAKSTGDEETTEKMADPNARFIINGREVHGRHMLNHLVKHLREEIKHVHIHRVSVVNGKAKMDTEVNVELEYNGVTFIIRTRVEIDTVVIDGRFHSVSIEIR	1.12
EEEEEFLRIMIELFLRTVKTGDEDAFNKLADPNVKSNINGVTLHGMERHHEWLRIELEKAGVERVDTRLDDKNIIDGRVIVHGTMFYNGRTITVHNIWHKINGRWVLETIEIR	1.6
EEEEEHMEHMMRLTLQLFKTGDEETFIDLLDPNVKVHINGVTVHGWDRLIRVKEMIDKEIRFRDFIIHHIRVVDGRAEMEGTVTGDVNGQSRIRDWRSILVVIDGKIKSISWQFN	2.27
EEEEEKQERALRWFLHIIETGNEELLHRLLDPNVQVEIGDKRFHGWKHLLMVFNDLGVKHVELRDFTIINGVIRNEILLRVGDKENLTILILRKVDGKWQLERFNLQ	1.79
EEEEENAKQFFHIWERSMRTGDEKTLHELADPHVRAVIGDKHHIGREEFHEVIRQTMEHIRVDDMILHTIMVYDGKVEILGRLVVRVGDKTHEVHVKIQVEKINGRWLLTELHIK	0.074
EEEEESVQRAMERILHALQTGDWHTLSRMADPHVKLLVNGVELHGMEKIEEFLKKLLEELGVDKIDVRLHDFHTFNGVVHVDVRSHFNGRTHREEWVLLKVNGRWSLKEVRTE	1.44
EEEEKEADEEVRIMIKSLYTGDEDTVHEMADPNALVKVGDKTIHGMHLFLHTWIRRMEKHGIRVEVRLDDLEIQGEKIHIHLTLIYRFNGKDYPIEFEIHVNKINGQWRVSEIIEI	1.25
EEEEKEIKDLLREIFEMIVTGDWRLIRENMDPNARMEVGDKEVHGRDHVIHHLHNLGFKHIKEKDINVQGEKISIHGHVDVNGRSRHVDFIAHKVNGKWLYKSFHFH	0.826
EEEEKHAKHVAKEFLRLLFTGNEHRLKEYLDPNVRLDVNGQEFHGWEEIVKWLREIRFEDSRLHRIRVVGDKIDIDGELDGVINGRRVDRRSIIILFVVDGRYTEVTYRNI	1.26
EEEEKHEREMAKIMLDVLRTGDEELFERMFDPNTRYEVGDKILHGRHEVLRNWLEMIKKFKNARFITRHVHVFNGVLHINIEVRFDGRTHEYHIDLFFWDGRFKEVRVESH	1.54
EEEEKMARKMIKDIIENFRTGDWDLMETLADPDVRLHFNGRDYHGREEFLKIERTRFEKVPNVRETERNVTWRNFDGRLELEIHTEHIINGVRIHVLLIFTTEKINGRWSMKSIEIHEK	0.704
EEEEKVEHDLLRLFAEALSTGNEHIMAELLDPHVRIIVNGKHNIGRETRKTFIEHIRVRSEDVRIRTIEVQGDKIITDSEMDIILDFDGVRTTTTVEVQIIIWKYNGKWYIKMVKFK	1.36
EEEEQHMKEMAHIFIELMETGDEERLHKYFDPNWRFRIGDKHHHGRETYIHWLHQLGVDKVKVHLRHLDFQGDKLRIDSEREFDGKIEKIDIILIKFNGRWIINEIRVD	1.29

Sequence	protease stability score
EEEERESEEKFRLLLELLRTGDEEILKHMADPNTKIVINGVDLHGWKEWHRIMRRFKNVTIRFKELWVYGDKAQARVEFDIDGKSFEMELHFVVINGRLKSIHVHSH	2.11
EEEERILFEEMEHLLHNFLTGNEEHLHELIDPRVRILIGDKDIHGMELHANIWKKVKGIKEEYHVHRVKLYNGRNEMDTEVRRVIDGQELSVRTKIIFDVVDGKLKSAEIRFH	0.771
EEEERVAVEFFRTLQESIRTGDEKTVKELADPNTRLDVGDKHFHGMEEIRKYWLRFDHFERHTLREEDFDVVNGVMSVHGRLEVHGRYNGQRVHTHYHMVIFVLKVNGRWKITEIKLH	1
EEEEWLVKIAIRILIETFRTGDFHLWEELADPNTRLRIGNFEFHGREEVLHSLIEMRIHSVHIEDHKVIDGRLHVDSRLLGTFNGQHINRETRLISLKINGVWFIKSFEFV	0.648
EEEHELTELLSRLWVHAIRTGDEDTLKELMDPNTRFEINGKEHIGRERLTDAFRELRVHRLHIEHIEIQGDKVLMETRSDIEINGVRRETETRIILHVVNGRIKEVRVHIK	1.84
EEEHKFITDIVRLFQELLRTGDFTLLRRMIDPHARIDINGVENHGWEKTARHIWELGMTRESEVRIRDVKVYDGRVEIDIEVEIHNDYNGRKIVVRHEIILFVIKFNGRWNLEQIHIK	1.65
EEEKDWSTEVLRLFLEMMATGDWEFLARFLDPHVKLEVDGREFHGREEVSRSLEEHFRKFGADHVEIRLRRIREVDGRLHVDGRLILHIGDKTIERDMQVHSYKIDGQWSIHEVTHK	1.45
EEEKEHAREIVDILWELHETGDEEIFRTLADPDVRLLIGDKKIVGREEIWRKLKEVHKHWRLKSYHTRHLHVQGEKVTIDGVINGVYDGVDTSIDVNIQIFTFNGRFRSMREHYS	0.317
EEEKEHLTHMAKLFHDLTQTGDEHLFNHLADPHVKIDVHIGDKDLHFHGREEFLWWILEIIEQWRIEFDLRDTIPVNGKVHVKTDIKINVNGREHRIETRLHLVIVNGKLKESEIRVS	1.69
EEEKEIAEELIRRIRESLRTGDEDLKHKLADPNVRHIFNGRNNHGREEMLRTLEELIKQFGVENIDIELHDWDHVDGRLHIHVRVRYGDYMMHLRIEAEKVNGRWQSETVELR	1.23
EEEKESHQWILEVYMHTVRTGDPRMIKELLDPNVKLEAENREVHGREHVLKILWTKLHEMRIEHVTVEDVEVQGNKVRVHNEVHYTFDGQRDILKTEVIATKFDGRWHFKSLREK	0.222
EEEKETERIASEHHLEHLRTGDEETYLRNFDPHVRLDIDGREFHGWEFFRHFLRRMGFKHVRHIQIHHSELFNGRLFFDGTIRFRVGDKEDTFKVEVVDVKFNGRWHIQEFRVK	1.43
EEEKHLLRRIVRELTESERTGDEDHLDKLLDPHARTNVNGVDFHGREDWRKWTEEFFRRVDHIEFRIEDIKIINGVAIVDTRITMHIGDKHIHFELEIKNVIIDGRVKELRIKFK	0.91
EEEKKETEHWIETFYRIINTGDEETWSKMADPDMRLEVLIDGKKLELHGRDAFEDFVSKMGFDHVHIHDMEVIGEKAHIHTELRYGDKHIRFEIQLVVVNGRYKSVTIRRK	1.75
EEEKKNRAHQFLKAVERGDPEELRKQFDPNAHARVGDKRYHGMEEWAKDVMRRVRELRMSIKRLSVDVQGNDVKVNMNLVINRNGKPKEFREVWYFKIHNGHFVELHVQEEP	1.24
EEEKRISDRSLEHLVRSWWTGDEQLYTELADPNVRVEIGDKEYHGREDARHALRRELEHIRIKHIVYRRFEFVGEYIHVDTRMLVDVNGVHILRTMHILEFKFDGRWHLTSLIIR	1.21
EEELELAKKIADTFNHDMETGDEKSRWDLFDPNVRIDWNGKDLHGWEQEEEELERLGITKVELEIKRKEVQGDKVILDGTVRFNGRSTRVHVHIRVVNGRLKSIKIIIR	0.345
EEEQEDSEWATKLFIEVLETGDEHTSEHLADPDTRVEFNGKILHGREEWNKIVRKVKNARIHFDHIRVQGDKINVDTTVEVDGKRMKFHIISRKFNGVWFLQSIHIK	2.07
